Laboratory results published in article PMC12460158, “Structural basis of fast N-type inactivation in Kv channels” (Nature, 2025).
Ends that are not written are not given here.

B1: full-length E12K/D13K AcA-EI Shaker Kv channel (enhanced inactivation mutant, initiator Met removed, Ala2 acetylated) (natural protein, Drosophila melanogaster, UniProt P08510 2-655, looked up)
chain: AAVAGLYGLGKKRQHRKKQQQQQQHQKEQLEQKEEQKKIAERKLQLREQQLQRNSLDGYGSLPKLSSQDEEGGAGHGFGGGPQHFEPIPHDHDFCERVVINVSGLRFETQLRTLNQFPDTLLGDPARRLRYFDPLRNEYFFDRSRPSFDAILYYYQSGGRLRRPVNVPLDVFSEEIKFYELGDQAINKFREDEGFIKEEERPLPDNEKQRKVWLLFEYPESSQAARVVAIISVFVILLSIVIFCLETLPEFKHYKVFNTTTNGTKIEEDEVPDITDPFFLIETLCIIWFTFELTVRFLACPNKLNFCRDVMNVIDIIAIIPYFITLATVVAEEEDTLNLPKAPVSPQDKSSNQAMSLAILRVIRLVRVFRIFKLSRHSKGLQILGRTLKASMRELGLLIFFLFIGVVLFSSAVYFAEAGSENSFFKSIPDAFWWAVVTMTTVGYGDMTPVGVWGKIVGSLCAIAGVLTIALPVPVIVSNFNYFYHRETDQEEMQSQNFNHVTSCPYLPGTLGQHMKKSSLSESSSDMMDLDDGVESTPGLTETHPGRSAVAPFLGAQQQQQQPVASSLSMSIDKQLQHPLQQLTQTQLYQQQQQQQQQQQNGFKQQQQQTQQQLQQQQSHTINASAAAATSGSGSSGLTMRHNNALAVSIETDV
modifications: acetyl on the N-terminal Ala2 (initiator Met removed), by mass spectrometry
notes: Shaker Kv channel, Drosophila melanogaster; Residues of the TEV site may remain at the C terminus (surmise); not shown: mVenus, C-terminal, cleaved; polyhistidine, C-terminal, cleaved

Key:
[1] = target: the molecule itself; assay: cryo-EM structure; channel in MSP1E3D1 lipid nanodiscs (POPC:POPG:POPE 3:1:1), 20 mM Tris pH 7.5, 4 mM KCl, 46 mM NaCl; C4 refinement and focused classification in C1
[2] = target: B1; assay: cryo-EM structure; AcA-EI Shaker in MSP1E3D1 lipid nanodiscs, 4 mM KCl, 46 mM NaCl, incubated with 1 mM free acetylated N-terminal peptide for 30 min before grid preparation; C1; conditions: both partners purified

Binder	binding result [1]	binding result [2]
GT Shaker Kv channel (N-terminally mVenus tagged Shaker after TEV cleavage, with additional Gly and Thr on the N terminus) (natural protein, Drosophila melanogaster, two additional residues (Gly and Thr) left on the N terminus after removal of the mVenus tag with TEV protease, confirmed by mass spectrometry; Shaker Kv channel, Drosophila melanogaster, full-length gene; the N-terminal Met stands at position 3 of this construct; Purified by the N-terminal tag, so at least one N terminus is intact in each tetramer; other N termini may be truncated by …) GTMAAVAGLYGLGEDRQHRKKQQQQQQHQKEQLEQKEEQKKIAERKLQLREQQLQRNSLDGYGSLPKLSSQDEEGGAGHGFGGGPQHFEPIPHDHDFCERVVINVSGLRFETQLRTLNQFPDTLLGDPARRLRYFDPLRNEYFFDRSRPSFDAILYYYQSGGRLRRPVNVPLDVFSEEIKFYELGDQAINKFREDEGFIKEEERPLPDNEKQRKVWLLFEYPESSQAARVVAIISVFVILLSIVIFCLETLPEFKHYKVFNTTTNGTKIEEDEVPDITDPFFLIETLCIIWFTFELTVRFLACPNKLNFCRDVMNVIDIIAIIPYFITLATVVAEEEDTLNLPKAPVSPQDKSSNQAMSLAILRVIRLVRVFRIFKLSRHSKGLQILGRTLKASMRELGLLIFFLFIGVVLFSSAVYFAEAGSENSFFKSIPDAFWWAVVTMTTVGYGDMTPVGVWGKIVGSLCAIAGVLTIALPVPVIVSNFNYFYHRETDQEEMQSQNFNHVTSCPYLPGTLGQHMKKSSLSESSSDMMDLDDGVESTPGLTETHPGRSAVAPFLGAQQQQQQPVASSLSMSIDKQLQHPLQQLTQTQLYQQQQQQQQQQQNGFKQQQQQTQQQLQQQQSHTINASAAAATSGSGSSGLTMRHNNALAVSIETDV	binds	–
Ac-AAVAGLYGLGKKRQHRKKQ (N terminus of the Shaker Kv channel without the initiator Met, with the E12K and D13K changes of EI Shaker; molecular weight 2,151 Da; also called additional N-terminal peptide; source: synthetic peptide (GenScript)) [acetylated free N-terminal peptide of EI Shaker (Ac-AAVAGLYGLGKKRQHRKKQ)]	–	binds
full-length wild-type (WT) Shaker Kv channel, C-terminally mVenus tagged, tag removed (natural protein, Drosophila melanogaster, UniProt P08510 1-655, looked up, Shaker Kv channel, Drosophila melanogaster, full-length gene; Residues of the TEV site may remain at the C terminus (surmise); also called C-terminally tagged WT Shaker; C-terminal mVenus-tagged Shaker; not shown: mVenus, C-terminal, cleaved; polyhistidine, C-terminal, cleaved) MAAVAGLYGLGEDRQHRKKQQQQQQHQKEQLEQKEEQKKIAERKLQLREQQLQRNSLDGYGSLPKLSSQDEEGGAGHGFGGGPQHFEPIPHDHDFCERVVINVSGLRFETQLRTLNQFPDTLLGDPARRLRYFDPLRNEYFFDRSRPSFDAILYYYQSGGRLRRPVNVPLDVFSEEIKFYELGDQAINKFREDEGFIKEEERPLPDNEKQRKVWLLFEYPESSQAARVVAIISVFVILLSIVIFCLETLPEFKHYKVFNTTTNGTKIEEDEVPDITDPFFLIETLCIIWFTFELTVRFLACPNKLNFCRDVMNVIDIIAIIPYFITLATVVAEEEDTLNLPKAPVSPQDKSSNQAMSLAILRVIRLVRVFRIFKLSRHSKGLQILGRTLKASMRELGLLIFFLFIGVVLFSSAVYFAEAGSENSFFKSIPDAFWWAVVTMTTVGYGDMTPVGVWGKIVGSLCAIAGVLTIALPVPVIVSNFNYFYHRETDQEEMQSQNFNHVTSCPYLPGTLGQHMKKSSLSESSSDMMDLDDGVESTPGLTETHPGRSAVAPFLGAQQQQQQPVASSLSMSIDKQLQHPLQQLTQTQLYQQQQQQQQQQQNGFKQQQQQTQQQLQQQQSHTINASAAAATSGSGSSGLTMRHNNALAVSIETDV	binds	–
B1	binds	–
